The source of these data is US20240076403A1 (SIMCERE ZAIMING PHARMACEUTICAL, published 2024).

Assay [1] concerns the target T1, monkey HER2-His protein (Sino Biological, Cat. No. 90295-C08H) (monkey).
T1 construct: also called monkey HER2 protein
Nature of the assay: ELISA, 0.001 nM. A general note: An ELISA detects its analyte on a solid surface through an enzyme-linked reagent.

The target of assay [2] is T1, monkey HER2-His protein (Sino …). In words: ELISA, 0.0001 nM.
Assay [3] has the same target. Nature of the assay: ELISA, 100 nM.
For assay [4] the target is unchanged. Nature of the assay: ELISA, 0.00001 nM.
Assay [5] has the same target. In words: ELISA, 0.1 nM.
The target is the same in assay [6]. Nature of the assay: ELISA, 1 nM.
Assay [7] has the same target. In words: ELISA, 10 nM.
Assay [8] shares this target. In words: ELISA, 0.01 nM.
In a further assay the target is T2, monkey HER2-His protein (monkey).
T2 construct: Bought protein; also called monkey HER2 protein
In words: SPR, antibody captured on Protein A chip, monkey HER2-His analyte, 1:1 model. (In SPR one partner is held on a chip, and binding of the other changes the refractive index at the surface.)

In assay [9] the target is T3, recombinant human HER2-His protein (human, UniProt P04626 23-652, limits assumed).
T3 construct: also called human HER2 protein; not shown: His tag
In words: SPR, antibody captured on Protein A chip, human HER2-His analyte, 1:1 model. Here is the method: The sample and running buffer were HBS-EP+ (10 mM HEPES, 150 mM NaCl, 3 mM EDTA, 0.05% surfactant P20) (GE Healthcare; BR-1006-69). The flow cell was set at 25° C. The sample block was set at 16° C. Both were pretreated with the running buffer. In each cycle, first, the antibody to be tested was captured using the Protein A chip, and then a single concentration of HER2 antigen protein was injected. The association and dissociation processes of the antibody with the antigen protein were recorded, and finally, the chip was regenerated using Glycine pH 1.5 (GE Healthcare; BR-1003-54). The association was determined by injecting different concentrations of recombinant human HER2-His in the solution and maintaining for 240 s, wherein the flow rate was 30 μL/min, and the protein was diluted in a 1:1 dilution ratio from 200 nM (see detailed results for actual concentrations tested) to obtain 5 concentrations in total. The dissociation phase was monitored for up to 600 s and triggered by switching from the sample solution to the running buffer. The surface was regenerated by washing with 10 mM glycine solution (pH 1.5) at a flow rate of 30 μL/min for 30 s. The difference in bulk refractive index was corrected by subtracting the responses obtained from the goat anti-human Fc surface. Blank injections were also subtracted (=double referencing). To calculate the apparent KD and other kinetic parameters, the Langmuir 1:1 model was used.

For orientation: Kd means the constant that tells how readily two partners part at equilibrium. The term koff denotes the first-order rate constant of dissociation. As usually defined, the kon is a measure of how fast the partners come together.

B1: Tab050 (2C4 human IgG1, Pertuzumab) (antibody, V domains shown)
VH: EVQLVESGGGLVQPGGSLRLSCAASGFTFTDYTMDWVRQAPGKGLEWVADVNPNSGGSIYNQRFKGRFTLSVDRSKNTLYLQMNSLRAEDTAVYYCARNLGPSFYFDYWGQGTLVTVSS
VL: DIQMTQSPSSLSASVGDRVTITCKASQDVSIGVAWYQQKPGKAPKLLIYSASYRYTGVPSRFSGSGSGTDFTLTISSLQPEDFATYYCQQYYIYPYTFGQGTKVEIKR
notes: control antibody, human IgG1
As for B1, the OD450 in [1] worked out at 0.06; in assay [2], 0.06; in assay [3], 2.42; in assay [4] it was 0.05; in assay [5] it was 1.11; in assay [6], 2.04. The molecule also registered an OD450 in assay [7] of 2.15.

B2: Tab048 (FRP5 human IgG1) (antibody, V domains shown)
VH: QVQLQQSGPELKKPGETVKISCKASGYPFTNYGMNWVKQAPGQGLKWMGWINTSTGESTFADDFKGRFDFSLETSANTAYLQINNLKSEDMATYFCARWEVYHGYVPYWGQGTTVTVSS
VL: DIQLTQSHKFLSTSVGDRVSITCKASQDVYNAVAWYQQKPGQSPKLLIYSASSRYTGVPSRFTGSGSGPDFTFTISSVQAEDLAVYFCQQHFRTPFTFGSGTKLEIKR
notes: control antibody, human IgG1
For B2, the OD450 in assay [1] was determined as 0.11; in assay [2], 0.05; in assay [3], 2.35; in assay [8], 0.52; in assay [4] it was 0.05; in assay [5], 1.83. Also, the OD450 in assay [6] was found to be 2.24; in assay [7], 2.04.

B3: Tab048 (FRP5 human IgG1) (antibody, V domains shown)
VH: B2 VH
VL: B2 VL
notes: Control antibody in human IgG1 form
For B3, in the assay with monkey HER2-His protein, the Kd came to 0.617 nM, the koff is 0.000118 s⁻¹ and the kon turned out to be 191000 M⁻¹ s⁻¹. In assay [9], the dissociation constant (Kd) came out at 0.337 nM, the off-rate constant (koff) worked out at 7.45e-05 s⁻¹ and the on-rate constant (kon) is 221000 M⁻¹ s⁻¹.
